A word on the stoichiometry N: it is the number of molecules, sites or subunits per partner or assembly.

For 1 substance, stoichiometry N results are on record in PMC7484176.

The assay has as its target wild-type FtrA from Brucella abortus 2308 (Brucella abortus 2308). As to the kind of experiment: SEC. Background: Size exclusion chromatography separates by hydrodynamic size, large species first.

For “wild-type FtrA from Brucella abortus 2308 (natural protein)”, the stoichiometry N stood at 2.
